Measured values: US10005838B2, “Milk fat globule epidermal growth factor 8 regulates fatty acid uptake” (REGENTS OF THE UNIVERSITY OF CALIFORNIA, priority 2013, dated 2018)

How the values were obtained:
3T3-L1 adipocytes = experiment: Triglyceride content of 3T3-L1 adipocytes; assay type: cell-based, mouse; details: 3T3-L1 cells; 2, 4, 6, and 8 days after treatment; 10 μg/ml
Description: 3T3-L1 (Zen-Bio) fibroblasts were differentiated into adipocytes as described previously (Liao, J. et al., J Lipid Res 46, 597-602 (2005)). Briefly, 3T3-L1 fibroblasts were cultured to confluence on 10 cm tissue culture plates or in 6-well tissue culture dishes in DMEM supplemented with 10% FBS and 25 mM HEPES (normal medium). 2 days after reaching confluence, media was change and 3-isobutyl-1methylxanthine (Calbiochem), dexamethasone (Sigma), and insulin (Sigma) were added to the normal medium at concentrations of 0.5 mM, 1 μM, and 5 μg/mL, respectively, to induce adipocyte differentiation. After 2 days (and every 2 days thereafter), media was replaced with normal medium supplemented with 5 μg/mL insulin. Cells were harvested for use 6-10 days after differentiation. The human hepatocellular carcinoma cell line HepG2 was a generous gift of Dr. Ethan Weiss. Cells were propagated in Eagle's MEM supplemented with 10% fetal bovine serum.

cardiac myocytes = experiment: Fatty acid uptake in primary cardiac myocytes; assay type: cell-based, mouse
HepG2 cells = experiment: Fatty acid uptake in HepG2 cells; assay type: cell-based; details: HepG2 human hepatocellular carcinoma cell line
[1] = Olive oil gavage, serum triglycerides; assay type: in vivo, mouse
Description: (§1) 6-8 week-old mice were fasted for 4 hours and then gavaged with 15 μL olive oil per gram body weight. Mice had access to water but not food for the remainder of the experiment. In the experiments in FIGS. 3C and 3F, 50 μg/kg body weight of recombinant protein was mixed into olive oil and administered immediately to mice by gavage. In blocking antibody experiments, integrins αv (clone RMV-7) and 05 (clone ALULA) were administered by gavaging mice with 100 μL water containing 0.5 μg antibody per gram body weight 30 minutes before olive oil gavage. Triglyceride content of serum was assayed using a commercially available kit (Sigma-Aldrich) and fatty acid concentrations were quantified by Wako (Rabot, S. et al., FASEB J 24, 4948-4959 (2010)).

[2] = Liver and small intestine triglyceride content after olive oil gavage; assay type: in vivo, mouse; details: Mfge8−/− mice; 8 hours after olive oil gavage
Description: as §1
After experiments described above, samples from the left lobe of the liver and the proximal small intestine were isolated and rapidly frozen in liquid nitrogen for triglyceride content assays. Control mice were starved for 8 hours before their organs were harvested as above. Triglyceride content of the intestine (Uchida, A. et al., Front Physiol 3, 26) and liver (Kim, K. Y. et al., J Clin Invest 121, 3701-3712 (2011)) and fecal samples Kim, K. Y. et al., J Clin Invest 121, 3701-3712 (2011)) were quantified as described previously.

AKT at serine 473 = experiment: Western blot, AKT phosphorylation in 3T3-L1 cells; assay type: cell-based, mouse
Description: (§2) Following tissue preparation and SDS-PAGE, membranes were incubated with a polyclonal antibody against Akt (Cell Signaling Technology), or Rictor (Cell Signaling); Anti-PGC1 alpha antibody (abcam); a monoclonal antibody against Phospho-Akt Ser473 (Cell Signaling), Phospho-Rictor Thr1135 (Cell Signaling), GAPDH (Cell Signaling), or Mfge8 (R&D Systems). For evaluation of total AKT and total Rictor, membranes that been blotted for phospho-AKT and phospho-Rictor were stripped and reprobed. Plasma membrane and post-plasma membrane fractions were isolated as previously described (Nishiumi, S. & Ashida, H., Biosci Biotechnol Biochem 71, 2343-2346 (2007)).

AKT = experiment: Western blot, AKT phosphorylation in HepG2 cells; assay type: cell-based, human
Description: as §2

Rictor = experiment: Western blot, Rictor phosphorylation in HepG2 cells; assay type: cell-based, human
Description: as §2

FATP1 = experiment: Plasma membrane FATP1 expression in primary adipocytes; assay type: cell-based, mouse; details: Mfge8−/− adipocytes
Description: as §2

antral smooth muscle = experiment: Force of antral smooth muscle ring contraction; parameters: species or system mouse; details: addition of rMfge8

B1: rMfge8: recombinant Milk Fat Globule Epidermal Growth Factor 8, an integrin ligand, expressed in High 5 cells (protein)
chain: ASGDFCDSSLCLNGGTCLTGQDNDIYCLCPEGFTGLVCNETERGPCSPNPCYNDAKCLVTLDTQRGDIFTEYICQCPVGYSGIHCETETNYYNLDGEYMFTTAVPNTAVPTPAPTPDLSNNLASRCSTQLGMEGGAIADSQISASSVYMGFMGLQRWGPELARLYRTGIVNAWTASNYDSKPWIQVNLLRKMRVSGVMTQGASRAGRAEYLKTFKVAYSLDGRKFEFIQDESGGDKEFLGNLDNNSLKVNMFNPTLEAQYIKLYPVSCHRGCTLRFELLGCELHGCSEPLGLKNNTIPDSQMSASSSYKTWNLRAFGWYPHLGRLDNQGKINAWTAQSNSAKEWLQVDLGTQRQVTGIITQGARDFGHIQYVASYKVAHSDDGVQWTVYEEQGSSKVFQGNLDNNSHKKNIFEKPFMARYVRVLPVSWHNRITLRLELLGC
3T3-L1 adipocytes
  triglyceride content: significantly greater
Cardiac myocytes
  fatty acid uptake in Mfge8−/− cardiac myocytes: rescued
HepG2 cells
  fatty acid uptake in HepG2 cells: increased
[1]; Mfge8−/− mice, 50 μg/kg recombinant protein mixed into olive oil
  serum triglyceride levels after olive oil gavage: significantly raised
[1]; WT mice, recombinant protein mixed into olive oil
  WT serum triglyceride levels after olive oil gavage: significantly increased
[2]
  liver triglyceride levels after gavage: increased significantly
AKT at serine 473
  phosphorylation of AKT at serine 473: induced
AKT
  phosphorylation of AKT: induced
Rictor
  phosphorylation of Rictor: induced
FATP1
  membrane expression of FATP1: increased
Antral smooth muscle
  smooth muscle contraction of stomach strips from Mfge8 KO mice: rescued
